Data as given in patent publication US20140193915, “COMPOSITIONS AND METHODS FOR CUSTOM SITE-SPECIFIC DNA RECOMBINASES” (Monsanto Technology, LLC, published 2014).
Changes are numbered by the printed parent chain.

Molecular target: T1, sN-TALER V.2 (synthetic)
T1 chain: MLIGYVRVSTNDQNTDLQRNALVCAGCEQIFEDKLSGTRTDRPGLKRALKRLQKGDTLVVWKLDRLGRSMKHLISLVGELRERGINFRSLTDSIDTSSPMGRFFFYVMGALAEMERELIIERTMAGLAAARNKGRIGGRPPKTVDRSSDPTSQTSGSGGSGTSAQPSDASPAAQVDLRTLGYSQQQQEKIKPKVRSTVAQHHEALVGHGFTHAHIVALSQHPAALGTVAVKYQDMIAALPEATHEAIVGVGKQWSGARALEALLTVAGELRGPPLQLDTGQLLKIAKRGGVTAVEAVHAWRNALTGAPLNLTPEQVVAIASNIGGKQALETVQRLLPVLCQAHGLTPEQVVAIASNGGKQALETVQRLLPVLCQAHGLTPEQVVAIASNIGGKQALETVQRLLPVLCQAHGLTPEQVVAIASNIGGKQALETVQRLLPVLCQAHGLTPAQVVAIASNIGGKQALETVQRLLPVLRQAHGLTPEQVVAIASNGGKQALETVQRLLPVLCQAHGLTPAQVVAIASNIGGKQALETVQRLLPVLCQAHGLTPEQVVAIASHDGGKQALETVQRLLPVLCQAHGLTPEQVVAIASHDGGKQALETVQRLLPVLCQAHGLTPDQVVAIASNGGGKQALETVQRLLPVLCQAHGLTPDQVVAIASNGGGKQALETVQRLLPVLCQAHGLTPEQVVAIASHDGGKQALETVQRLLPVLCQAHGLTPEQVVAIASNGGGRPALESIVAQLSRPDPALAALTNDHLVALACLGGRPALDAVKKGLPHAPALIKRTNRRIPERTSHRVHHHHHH
Test: cell_activity; E. coli
Method: The co-transformed bacteria were plated on media with chloramphenicol, kanamycin, and X-gal then incubated at 37° C. for 18 to 36 hours. Control samples consisted of transformations using the reporter construct alone. Control transformants were similarly plated. The bacterial transformation protocol was either heat shock or electroporation per standard molecular biology techniques.
For each of these N-TALER chimera expression constructs, from one to three independent clones were selected for plasmid purification. These N-TALER chimera expression constructs were co-transformed with five of the N-TALER reporter constructs, as indicated in Table 15. […] In contrast to the result for pN-TALER N4.2.2, the chimera sN-TALER N4.2.2, with the same truncation point but a specific recombinase catalytic domain, reporters with 20, 24, or 40 bp of TALER central sequence length were efficiently recombined (score of 1) while reporters with 30 or 50 bp of TALER central sequence length were not recombined (score of 5). For the chimera sN-TALER N4.2, reporters with 20, 24, or 40 bp of TALER central sequence length were efficiently recombined (score of 1); the reporter with 30 bp of TALER central sequence length was poorly recombined (score of 3); and the reporter with 50 bp of TALER central sequence length was not recombined (score of 5). For the chimera pN-TALER N4.2, the recombination efficiency on the reporters tested varied from intermediate (scores of 3 and 4) to none (score of 5). […] In contrast to the result for sN-TALER N3.2, the chimera pN-TALER N3.2, with the same truncation point but a permissive recombinase catalytic domain, recombination efficiency on the reporters tested varied from efficient (scores of 1.5, 2, and 3) to none (score of 5). For both chimeras sN-TALER V.2 and pN-TALER V.2, there was efficient recombination (scores of 1, 1.5, and 2) of the 5 N-TALER reporter constructs tested.

B1: Gin18TALE+1 (dsDNA)
DNA 1: AGAAGGTATTTATATCCAAAACCATGGTTTACAATATAAATACCTTCT
DNA 2: B1 DNA 1 with C16T, C17G, A18T, A31T, C32G, A33G
activity: 1 score
